Holding throughout (assay): cross-linking; lysate (hypotonic buffer) of Sf9 cells expressing the V5-tagged protein, 0.01% glutaraldehyde at room temperature for various times; Western blot with anti-V5 antibody
Background: In western blotting, separated proteins are transferred to a membrane and probed.

The target in assay [1] is WSSV structural protein VP51A, full length, V5- or FLAG-tagged (white spot syndrome virus (WSSV-TW strain)).
Assay [2] deals with WSSV structural protein VP19, full length, V5- or FLAG-tagged (white spot syndrome virus (WSSV-TW strain)).
Assay [3] has as its target WSSV structural protein VP24, full length, V5- or FLAG-tagged (white spot syndrome virus (WSSV-TW strain)).

This is an account of results in article PMC2873410.

Regarding “WSSV structural protein VP51A, full length, V5- or FLAG-tagged (natural protein)”, the stoichiometry N in assay [1] was found to be 2.

Consider “WSSV structural protein VP19, full length, V5- or FLAG-tagged (natural protein)”, for which the stoichiometry N in assay [2] came to 2.

Take “WSSV structural protein VP24, full length, V5- or FLAG-tagged (natural protein)”: the stoichiometry N in assay [3] is 2.

In general, stoichiometry N refers to the number of molecules, sites or subunits per partner or assembly.
